We go through three molecules from publication PMC7199859 (The Journal of Cell Biology, 2020).

The target of assay [1] is GAS2L1 S352A (Bio-GFP-tagged) (human) (UniProt Q99501). The assay is described as follows: pull-down.
The target of assay [2] is GAS2L1 S352D (Bio-GFP-tagged) (human) (UniProt Q99501). Briefly: pull-down.
The target in assay [3] is taxol-stabilized microtubules from porcine brain α/β-tubulin (porcine) (UniProt P02550). The assay is described as follows: co-sedimentation.
Assay [4] concerns the target T1, His6-CH (recombinant GAS2L1 CH domain, His6 tagged) (human, UniProt Q99501 1-196).
T1 sequence (looked up): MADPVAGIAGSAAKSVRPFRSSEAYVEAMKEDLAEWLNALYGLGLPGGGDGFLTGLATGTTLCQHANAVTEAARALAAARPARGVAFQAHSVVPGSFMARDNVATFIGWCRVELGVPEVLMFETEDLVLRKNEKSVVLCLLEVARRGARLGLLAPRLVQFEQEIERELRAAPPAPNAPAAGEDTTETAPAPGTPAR
The assay is described as follows: pull-down.

“actin (endogenous, HEK293T; detected with anti-β-actin) (from UniProt P60709 1-375) (natural protein)”: the actin-binding activity relative to WT GAS2L1 worked out at 62 % lower in assay [1] and 46 % higher in assay [2].

B1: His6-FLAG-CH-GAR (recombinant GAS2L1 1-300) (domain or fragment)
chain: MADPVAGIAGSAAKSVRPFRSSEAYVEAMKEDLAEWLNALYGLGLPGGGDGFLTGLATGTTLCQHANAVTEAARALAAARPARGVAFQAHSVVPGSFMARDNVATFIGWCRVELGVPEVLMFETEDLVLRKNEKSVVLCLLEVARRGARLGLLAPRLVQFEQEIERELRAAPPAPNAPAAGEDTTETAPAPGTPARGPRMTPSDLRNLDELVREILGRCTCPDQFPMIKVSEGKYRVGDSSLLIFVRVLRSHVMVRVGGGWDTLEHYLDKHDPCRCSSTAHRPPQPRVCTFSPQRVSPTT
Consider B1, for which the microtubule-binding activity relative to the GAR protein in assay [3] is 47 % lower.

B2: His6-FLAG-GAR (recombinant GAS2L1 GAR protein, 197-300) (domain or fragment, human, UniProt Q99501 197-300, looked up)
chain: GPRMTPSDLRNLDELVREILGRCTCPDQFPMIKVSEGKYRVGDSSLLIFVRVLRSHVMVRVGGGWDTLEHYLDKHDPCRCSSTAHRPPQPRVCTFSPQRVSPTT
B2: in assay [4], the binding result is “binds”.
